Results from article PMC9307952, “Lipoate protein ligase B primarily recognizes the C8-phosphopantetheine arm of its donor substrate and weakly binds the acyl carrier protein” (The Journal of Biological Chemistry, 2022).

Substrate: CCCCCCCC(=O)SCCNC(=O)CCNC(=O)[C@H](O)C(C)(C)COP(=O)(O)OP(=O)(O)OC[C@H]1O[C@@H](n2cnc3c(N)ncnc32)[C@H](O)[C@@H]1OP(=O)(O)O
Experiment: purified protein
Conditions: 5 μM LipB, 25 μM E. coli GcvH as acceptor, 0-160 μM C8-CoA, 50 mM Tris-HCl, 200 mM NaCl, pH 8.0, 30 °C

B1: E. coli LipB (EcLipB) (Escherichia coli K-12) (protein)
chain: MYQDKILVRQLGLQPYEPISQAMHEFTDTRDDSTLDEIWLVEHYPVFTQGQAGKAEHILMPGDIPVIQSDRGGQVTYHGPGQQVMYVLLNLKRRKLGVRELVTLLEQTVVNTLAELGIEAHPRADAPGVYVGEKKICSLGLRIRRGCSFHGLALNVNMDLSPFLRINPCGYAGMEMAKISQWKPEATTNNIAPRLLENILALLNNPDFEYITA
B1 was tested, and the Km was 12.24 ± 0.79 µM, the Vmax was 1.08 µmol/min and the kcat was 0.00367 s⁻¹.
